Measured values: patent US20090053242A1 (Amgen, published 2009)
Substitutions are numbered along the chain they refer to.

How the values were obtained:
[1] = molecular target: human c-Mpl receptor (TPO receptor), full-length, transfected into IL-3 dependent murine 32D cells (human) (UniProt P40238); experiment: cell-based or functional assay
[2] = molecular target: T1, human c-Mpl receptor (TPO receptor), full-length, transfected into IL-3 dependent murine 32D cells (human, UniProt P40238 26-635); experiment: cell-based or functional assay
T1 sequence (looked up): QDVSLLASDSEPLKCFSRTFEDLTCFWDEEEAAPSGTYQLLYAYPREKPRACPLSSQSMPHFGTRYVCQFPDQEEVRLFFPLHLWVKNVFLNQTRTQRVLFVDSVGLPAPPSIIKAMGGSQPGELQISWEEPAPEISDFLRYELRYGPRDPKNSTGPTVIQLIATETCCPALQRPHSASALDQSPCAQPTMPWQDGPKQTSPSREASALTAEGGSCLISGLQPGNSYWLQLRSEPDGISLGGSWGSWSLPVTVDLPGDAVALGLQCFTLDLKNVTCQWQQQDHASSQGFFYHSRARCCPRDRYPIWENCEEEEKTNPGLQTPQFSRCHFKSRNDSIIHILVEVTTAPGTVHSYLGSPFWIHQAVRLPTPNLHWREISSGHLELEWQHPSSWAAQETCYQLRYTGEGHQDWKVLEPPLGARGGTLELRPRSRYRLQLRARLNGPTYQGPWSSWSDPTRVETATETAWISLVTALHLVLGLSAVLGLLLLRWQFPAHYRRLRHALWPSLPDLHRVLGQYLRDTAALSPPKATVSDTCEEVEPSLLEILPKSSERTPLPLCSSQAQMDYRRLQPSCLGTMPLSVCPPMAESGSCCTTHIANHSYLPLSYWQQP

TMP tandem dimer with linker of 10 glycine residues (peptide)
potency in TPO-dependent cell-proliferation assay, against the monomer [1]: > 1000 fold

TMP tandem dimer with linker of 9 glycine residues (peptide)
potency in TPO-dependent cell-proliferation assay, against the monomer [1]: > 1000 fold

TMP tandem dimer with linker of 14 glycine residues (peptide)
potency in TPO-dependent cell-proliferation assay, against the monomer [1]: > 1000 fold

B1: TMP tandem dimer without linker (0 glycine residues) (peptide)
peptide: IEGPTLRQWLAARAIEGPTLRQWLAARA
potency in TPO-dependent cell-proliferation assay, against the monomer [2]: > 1000 fold

B2: TMP tandem dimer with linker of 6 glycine residues (peptide)
peptide: IEGPTLRQWLAARAGGGGGGIEGPTLRQWLAARA
potency in TPO-dependent cell-proliferation assay, against the monomer [2]: > 1000 fold

B3: TMP tandem dimer with linker of 7 glycine residues (peptide)
peptide: IEGPTLRQWLAARAGGGGGGGIEGPTLRQWLAARA
potency in TPO-dependent cell-proliferation assay, against the monomer [2]: > 1000 fold

B4: TMP tandem dimer with linker of 1 glycine residue (peptide)
peptide: IEGPTLRQWLAARAGIEGPTLRQWLAARA
potency in TPO-dependent cell-proliferation assay, against the monomer [2]: > 1000 fold

B5: TMP tandem dimer with linker of 8 glycine residues (peptide)
peptide: IEGPTLRQWLAARAGGGGGGGGIEGPTLRQWLAARA
potency in TPO-dependent cell-proliferation assay, against the monomer [2]: > 1000 fold

B6: TMP tandem dimer with linker of 2 glycine residues (peptide)
peptide: IEGPTLRQWLAARAGGIEGPTLRQWLAARA
potency in TPO-dependent cell-proliferation assay, against the monomer [2]: > 1000 fold

B7: peptide 13, TMP tandem dimer with GPNG linker (peptide)
peptide: IEGPTLRQWLAARAGPNGIEGPTLRQWLAARA
activity in cell-proliferation assay, against the GGGG-linked analog [2]: > 10 fold less active | potency in cell-proliferation assay, against the monomer [2]: ~100 fold

B8: TMP tandem dimer with linker of 4 glycine residues (peptide)
peptide: B7 peptide with P16G, N17G
potency in TPO-dependent cell-proliferation assay, against the monomer [2]: > 1000 fold

B9: TMP tandem dimer with linker of 5 glycine residues (peptide)
peptide: IEGPTLRQWLAARAGGGGGIEGPTLRQWLAARA
potency in TPO-dependent cell-proliferation assay, against the monomer [2]: > 1000 fold

B10: TMP tandem dimer with linker of 3 glycine residues (peptide)
peptide: IEGPTLRQWLAARAGGGIEGPTLRQWLAARA
potency in TPO-dependent cell-proliferation assay, against the monomer [2]: > 1000 fold
